Patent US20240166733A1 (VERSITECH, published 2024)

How the values were obtained:
Assay in all cases: ELISA, FABP coated on plate, HRP anti-mouse IgG detection, OD450
[1] = biological target: T1, mouse H-FABP recombinant protein (mouse, UniProt P11404 1-133, limits assumed)
T1 construct: also called mouse heart-FABP
Experimental: (§1) The mouse or human A-FABP, E-FABP, and H-FABP recombinant proteins ([…]) were coated on 96-well plates overnight for ELISA binding assay to evaluate the reactivity and specificity of monoclonal antibodies with various FABPs. [0155] 100 μL of 6H2 (1 μg/mL) was added to the wells and incubated for 1 h at room temperature. The plates were then washed three times with phosphate-buffered saline (PBS), followed by incubation with 0.2 μg/mL HRP-conjugated-[…] H+L (Proteintech, SA00001-1, Japan) as the detection antibody at room temperature for 1 hour. After washing with PBS, TMB chromogen solution (Beyotime, P0209, China) was added for color development; 2M H₂SO₄ was added to the wells to stop the enzyme-induced color reactions; and the absorbance at 450 nm was measured with a microtiter plate reader.

[2] = biological target: T2, human E-FABP recombinant protein (human, UniProt Q01469 1-135, limits assumed)
T2 construct: also called human epidermal-FABP
Experimental: as §1

[3] = biological target: T3, human H-FABP recombinant protein (human, UniProt P05413 1-133, limits assumed)
T3 construct: also called human heart-FABP
Experimental: as §1

[4] = biological target: T4, mouse E-FABP recombinant protein (mouse, UniProt Q05816 1-135, limits assumed)
T4 construct: also called mouse epidermal-FABP
T4 sequence (looked up): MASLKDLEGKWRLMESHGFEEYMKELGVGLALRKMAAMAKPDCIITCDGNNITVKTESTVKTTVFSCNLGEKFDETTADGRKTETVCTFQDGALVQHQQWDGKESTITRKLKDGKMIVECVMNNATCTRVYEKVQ
Experimental: as §1

T3 sequence (P05413 whole entry): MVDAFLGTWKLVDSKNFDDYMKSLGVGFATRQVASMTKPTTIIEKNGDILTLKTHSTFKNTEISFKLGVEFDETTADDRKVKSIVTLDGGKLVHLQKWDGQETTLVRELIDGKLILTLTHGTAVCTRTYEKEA
T1 sequence (P11404 whole entry): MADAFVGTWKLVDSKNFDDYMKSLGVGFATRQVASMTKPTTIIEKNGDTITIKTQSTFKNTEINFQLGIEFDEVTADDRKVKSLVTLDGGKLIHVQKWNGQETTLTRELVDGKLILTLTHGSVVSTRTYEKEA
T2 sequence (Q01469 whole entry): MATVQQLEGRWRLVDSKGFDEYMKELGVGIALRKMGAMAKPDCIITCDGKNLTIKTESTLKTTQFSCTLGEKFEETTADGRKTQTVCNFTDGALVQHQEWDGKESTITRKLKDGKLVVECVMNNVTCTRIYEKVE

binding result [1]: no binding (tested: 6H2 at 1 µg/mL)
binding result [2]: no binding (tested: 6H2 at 1 µg/mL)
binding result [3]: no binding (tested: 6H2 at 1 µg/mL)
binding result [4]: no binding (tested: 6H2 at 1 µg/mL)
B1: A-FABP neutralizing monoclonal antibody 6H2 (antibody, V domains shown)
VH: VKLQESGPELVKPGASVKIPCKASGYTFTDYNMDWVRQSRGKSLEWIGDINPYNGDTIYNQNFKGKATLTVDKSSTTAYLELRSLTSEDTAVYYCASGYGFWGQGTTVTVSS
VL: DIVMTQAPLSLPVSLGAQASISCRSSQSLVYINGNTYLHWYLQKPGQSPKLLIYKVSNRFSGVPDRFSGSGSGTDFTLKISRVEAEDLGVYFCSQSTHVPYTFGGGTKLEIK
notes: also called 6H2 mAb
